This is an account of results in patent US20130203655A1, “METHODS FOR PREVENTING OR TREATING VIRAL INFECTION” (priority 2010, published 2013).

Test [1] addresses DENV2 E DI/II H244A protein (Dengue virus 2 New Guinea C (NGC) strain). Kind of test: cell-based or functional assay.
Test [2] deals with DENV2 E′ protein (dimeric E ectodomain, E residues 1-395, ST tag) (Dengue virus 2 New Guinea C (NGC) strain). Nature of the test: cell-based or functional assay.
For test [3], the target named is DENV2 E DI/II protein (monomeric, E residues 1-291, STST tag), wild type (Dengue virus 2 New Guinea C (NGC) strain). Nature of the test: cell-based or functional assay.
The next test concerns DENV1 H244A prM-E VLP. Particulars: 20 mM NH4Cl, total 36 h, vs untreated cells. The procedure: (§1) Expression of prM-E and VLP production. WT and E H244A mutant DENV1 prM-E sequences were PCR-amplified from the pGDENV1 3.3 subclones described above, and cloned into pcDNA4/TO (Invitrogen, Life Technologies, Carlsbad, Calif.). These constructs were transfected into T-REx™-293 cells (Invitrogen, Life Technologies, Carlsbad, Calif.) using Lipofectamine™ 2000 (Invitrogen, Life Technologies, Carlsbad, Calif.) and selected in T-REx HEK medium containing 125 μg/ml Zeocin, all as previous described.
(§2) For VLP secretion studies, 2-3×10^6 cells were seeded in 10 cm plates, cultured for 24 h, and then induced by culture for 36 h in 1.5 μg/ml tetracycline in DME medium with 10% FCS at 37° C. The culture media were centrifuged at 10,000×g for 30 min to remove cell debris. VLPs were then pelleted through a 0.5 ml sucrose cushion by centrifugation at 54,000 rpm for 2 h at 4° C. using a TLS55 rotor. To test the effect of neutralizing the pH of acidic cellular compartments, cells were seeded and induced as above. After 2 h of induction the media were changed to DME medium containing 20 mM HEPES pH 8.0, 2% FCS, and 1.5 μg/ml tetracycline plus 20 mM NH4Cl as indicated, and the incubation continued for a total of 36 h. E proteins in the cell lysates were immunoprecipitated using mAb 4G2.

The next test deals with DENV1 WT prM-E VLP. Conditions: 20 mM NH4Cl-treated vs untreated cells. The procedure: as §1, §2

Regarding “recombinant DENV2 pr peptide (prM residues 1-86 with N-terminal GS and C-terminal tandem Strep tag)”, in test [1], the efficiency of floatation of H244A DI/II with liposomes, in the absence of pr was 43% and the efficiency of floatation of H244A DI/II with liposomes, in the presence of pr amounted to 47%. In test [2], the E′ co-floatation with liposomes at pH 5.75, pr:E′ molar ratio 12:1 (about 70% with a control protein) turned out to be 2%; the E′ co-floatation with liposomes, pr:E′ molar ratio 3:1 was determined as 22%; the E′ co-floatation with liposomes, pr:E′ molar ratio 6:1 was found to be 8%; the E′ co-floatation with liposomes, pr:E′ molar ratio 24:1 came to 0.4%.
As for “DENV2 NGC DIII protein (LDIIIH1CS, E residues 289-430)”, in test [3], the DI/II co-floatation with liposomes at low pH in the presence of DIII (none with BSA in place of DIII) was found to be 25%.
`Cl.N` [NH4Cl]: the “increase in production of VLP containing H244A mutant E protein” value in the test with DENV1 H244A prM-E VLP is recorded as 4-7 fold. For the same molecule, the “WT VLP production” value with DENV1 WT prM-E VLP was “similar”.
